According to the supplement of paper PMC9732359:
± gives the uncertainty stated by the source.

Test: protein stability index of a GFP-peptide fusion (yeast GPS) (PSI 1-4); higher = more stable; sorted into four equal gates, so the index is relative within each strain
How it was run: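 Tiled 17-residue yeast protein peptides were fused downstream of GFP in a plasmid that also expresses Cherry, and the pooled library was carried in yeast. Mid-log cultures in leucine-free medium were sorted into four equal gates by GFP/Cherry fluorescence ratio, and plasmids from each gate were PCR-amplified and Illumina-sequenced, with reads assigned to strains by barcodes. The protein stability index for each peptide was each gate's read frequency times its gate number, summed.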

AKKLSSFDFGNENEDED [ARP9]
protein stability index (doa10∆): 3.24 ± 0.11
protein stability index (pdr5∆): 3.13 ± 0.12
protein stability index (ubr1∆): 3.15 ± 0.087

SSFVRQELAKSIRSRRP [PRE1]
protein stability index (doa10∆): 2.08 ± 0.12
protein stability index (pdr5∆): 2.21 ± 0.074
protein stability index (san1∆): 1.78 ± 0.23
protein stability index (ubr1∆): 2.12 ± 0.065

DDTWYNLTEFVQMDKIR [AAR2]
protein stability index (doa10∆): 2.82 ± 0.11
protein stability index (pdr5∆): 2.88 ± 0.081
protein stability index (san1∆): 2.79 ± 0.061
protein stability index (ubr1∆): 2.83 ± 0.084

ADEPVKASLLLHVLVAH [FAS2]
protein stability index (doa10∆): 1.85 ± 0.043
protein stability index (pdr5∆): 1.59 ± 0.035
protein stability index (san1∆): 1.3 ± 0.059
protein stability index (ubr1∆): 1.43 ± 0.028

RAYRIIRAHQTELTHHL [QCR7]
protein stability index (doa10∆): 3.03 ± 0.11
protein stability index (pdr5∆): 3.34 ± 0.081
protein stability index (san1∆): 3.01 ± 0.07
protein stability index (ubr1∆): 2.96 ± 0.064

TTSEATANDRQINNVHL [RPN4]
protein stability index (doa10∆): 2.97 ± 0.11
protein stability index (pdr5∆): 2.91 ± 0.079
protein stability index (san1∆): 2.49 ± 0.087
protein stability index (ubr1∆): 2.7 ± 0.097

AAAFSQQQNASSKLYQM [GAL11]
protein stability index (doa10∆): 2.71 ± 0.097
protein stability index (pdr5∆): 2.86 ± 0.071
protein stability index (san1∆): 2.82 ± 0.045
protein stability index (ubr1∆): 3.25 ± 0.072

VRELVEKIDGMDVDSVK [RPC82]
protein stability index (doa10∆): 2.99 ± 0.19
protein stability index (pdr5∆): 3.41 ± 0.27
protein stability index (san1∆): 3.34 ± 0.11
protein stability index (ubr1∆): 3.3 ± 0.064

NASKVISTPIINAVLVN [RPO31]
protein stability index (doa10∆): 1.63 ± 0.11
protein stability index (pdr5∆): 2.19 ± 0.14
protein stability index (san1∆): 1.74 ± 0.2

NLRRHSDIVLDKKVTLI [SIN4]
protein stability index (doa10∆): 2.47 ± 0.05
protein stability index (pdr5∆): 3.05 ± 0.042
protein stability index (san1∆): 2.87 ± 0.034
protein stability index (ubr1∆): 2.68 ± 0.038

DQDRGAARHKQHEQGTF [RRI2]
protein stability index (doa10∆): 3.21 ± 0.1
protein stability index (pdr5∆): 2.99 ± 0.23

SARGSYLRVSFKNTRET [RPL17A]
protein stability index (doa10∆): 3.1 ± 0.048
protein stability index (pdr5∆): 2.82 ± 0.056
protein stability index (san1∆): 2.77 ± 0.051
protein stability index (ubr1∆): 2.86 ± 0.06

KEASQEDDNNNVEKPSS [YLR335W/NUP2]
protein stability index (doa10∆): 3.11 ± 0.088
protein stability index (pdr5∆): 3.22 ± 0.071
protein stability index (san1∆): 3.06 ± 0.053
protein stability index (ubr1∆): 3.18 ± 0.066

CRNILGVTSLIKNLGLP [RPP1]
protein stability index (doa10∆): 1.81 ± 0.054
protein stability index (pdr5∆): 1.58 ± 0.051
protein stability index (san1∆): 1.23 ± 0.092
protein stability index (ubr1∆): 1.75 ± 0.045

ENYEGKQDKTLQKVENQ [YIL149C/MLP2]
protein stability index (doa10∆): 3.2 ± 0.18
protein stability index (pdr5∆): 3.29 ± 0.14
protein stability index (san1∆): 2.8 ± 0.17
protein stability index (ubr1∆): 3.21 ± 0.21

STTEHINIDDLLYELTA [YJL039C/NUP192]
protein stability index (doa10∆): 2.82 ± 0.11
protein stability index (pdr5∆): 2.61 ± 0.092
protein stability index (san1∆): 2.43 ± 0.099
protein stability index (ubr1∆): 3.05 ± 0.053

ASLGIGLAAMGSANIEV [RPN2]
protein stability index (doa10∆): 1.65 ± 0.088
protein stability index (pdr5∆): 1.76 ± 0.079
protein stability index (san1∆): 1.74 ± 0.091
protein stability index (ubr1∆): 1.53 ± 0.067

TDGVIGSRTTTNHVLEV [RPO31]
protein stability index (doa10∆): 3.17 ± 0.094
protein stability index (pdr5∆): 3.62 ± 0.094
protein stability index (san1∆): 3.19 ± 0.13
protein stability index (ubr1∆): 3.54 ± 0.088

LNSFAFELCSLGDKELW [YJR042W/NUP85]
protein stability index (doa10∆): 1.76 ± 0.22
protein stability index (pdr5∆): 1.32 ± 0.12
protein stability index (ubr1∆): 1.34 ± 0.092

IRAHQTELTHHLLPRNE [QCR7]
protein stability index (doa10∆): 2.99 ± 0.1
protein stability index (pdr5∆): 3.2 ± 0.072
protein stability index (san1∆): 3.02 ± 0.064
protein stability index (ubr1∆): 2.92 ± 0.065

SKFSKQQAKGAFQKVAA [RPL24A]
protein stability index (doa10∆): 2.21 ± 0.065
protein stability index (pdr5∆): 2.7 ± 0.078
protein stability index (san1∆): 2.9 ± 0.05
protein stability index (ubr1∆): 2.54 ± 0.05

GRVYRPLFIVEDDESLG [RPB2]
protein stability index (doa10∆): 1.71 ± 0.063
protein stability index (pdr5∆): 1.8 ± 0.087
protein stability index (san1∆): 1.59 ± 0.1
protein stability index (ubr1∆): 1.69 ± 0.034

QSKKLIEEKLSSFSKKT [YIL149C/MLP2]
protein stability index (doa10∆): 2.9 ± 0.056
protein stability index (pdr5∆): 3 ± 0.049
protein stability index (san1∆): 2.98 ± 0.053
protein stability index (ubr1∆): 3.02 ± 0.045

SENRFPGWDFETEEIDP [RPL5]
protein stability index (doa10∆): 2.77 ± 0.14
protein stability index (pdr5∆): 2.78 ± 0.076
protein stability index (san1∆): 2.48 ± 0.078
protein stability index (ubr1∆): 2.5 ± 0.16

KTRGPFHFRAPSRIFYK [RPL16A]
protein stability index (doa10∆): 2.99 ± 0.08
protein stability index (pdr5∆): 2.6 ± 0.062
protein stability index (san1∆): 2.56 ± 0.061
protein stability index (ubr1∆): 2.77 ± 0.057

QLNSRAVAVVVDPIQSV [RPN11]
protein stability index (doa10∆): 1.27 ± 0.067
protein stability index (pdr5∆): 1.65 ± 0.076
protein stability index (san1∆): 1.43 ± 0.12
protein stability index (ubr1∆): 1.48 ± 0.051

FSWISVVNDLVGEKLVV [SIR3]
protein stability index (doa10∆): 3.42 ± 0.13
protein stability index (pdr5∆): 2.58 ± 0.14
protein stability index (san1∆): 3.26 ± 0.072
protein stability index (ubr1∆): 2.84 ± 0.14

DPAHSLNYTVINFKSRE [AAR2]
protein stability index (doa10∆): 3.07 ± 0.054
protein stability index (pdr5∆): 3.1 ± 0.059
protein stability index (san1∆): 3.14 ± 0.046
protein stability index (ubr1∆): 3.22 ± 0.037

HLIKCFFKITLQRASSK [ITC1]
protein stability index (doa10∆): 1.38 ± 0.073
protein stability index (pdr5∆): 1.19 ± 0.047
protein stability index (san1∆): 1.18 ± 0.12
protein stability index (ubr1∆): 1.08 ± 0.051

DATNTSYKMIQLDAYGE [SWP82]
protein stability index (doa10∆): 3.29 ± 0.087
protein stability index (pdr5∆): 3.39 ± 0.077
protein stability index (san1∆): 3.25 ± 0.057
protein stability index (ubr1∆): 3.16 ± 0.05

QQPTASDNIASLQYINI [SMD1]
protein stability index (doa10∆): 3.27 ± 0.09
protein stability index (pdr5∆): 3.27 ± 0.098
protein stability index (san1∆): 3.13 ± 0.12
protein stability index (ubr1∆): 3.24 ± 0.078

KPTEVNDSENNSSEEDK [ITC1]
protein stability index (doa10∆): 2.82 ± 0.058
protein stability index (pdr5∆): 2.74 ± 0.082
protein stability index (san1∆): 3.17 ± 0.052
protein stability index (ubr1∆): 3.3 ± 0.067

EVSDFDEMYELTDPMTV [DIB1]
protein stability index (pdr5∆): 3.48 ± 0.18
protein stability index (san1∆): 2.94 ± 0.23
protein stability index (ubr1∆): 2.85 ± 0.26

RVAKGSGTSVFEVEMIL [SRP54]
protein stability index (doa10∆): 3.28 ± 0.071
protein stability index (pdr5∆): 3.26 ± 0.099
protein stability index (san1∆): 3.39 ± 0.076
protein stability index (ubr1∆): 3.42 ± 0.12

NEENDLDVDPAKRIRVS [RPB2]
protein stability index (doa10∆): 3.01 ± 0.07
protein stability index (pdr5∆): 3 ± 0.07
protein stability index (san1∆): 3.11 ± 0.12
protein stability index (ubr1∆): 3.02 ± 0.047

ELSEEKYIVKASSGPRY [RPT4]
protein stability index (doa10∆): 2.66 ± 0.21
protein stability index (pdr5∆): 2.72 ± 0.17
protein stability index (san1∆): 3.21 ± 0.098
protein stability index (ubr1∆): 2.41 ± 0.18

AHTPMLQMYSKIRRHPN [FAS1]
protein stability index (doa10∆): 2.81 ± 0.051
protein stability index (pdr5∆): 3.03 ± 0.063
protein stability index (san1∆): 2.96 ± 0.06
protein stability index (ubr1∆): 2.95 ± 0.048

STVSANHSNNDIPTIAD [BRN1]
protein stability index (doa10∆): 3.22 ± 0.097
protein stability index (pdr5∆): 3.03 ± 0.093
protein stability index (san1∆): 3.02 ± 0.069
protein stability index (ubr1∆): 3.24 ± 0.074

MYNGKDRAQNSYQPMYQ [SSN3]
protein stability index (doa10∆): 3.31 ± 0.21
protein stability index (pdr5∆): 2.48 ± 0.23
protein stability index (ubr1∆): 3.2 ± 0.063

DHDDSTDDADDHINWEH [NSL1]
protein stability index (doa10∆): 3.31 ± 0.088
protein stability index (pdr5∆): 3.31 ± 0.094
protein stability index (san1∆): 3.26 ± 0.056
protein stability index (ubr1∆): 3.35 ± 0.04

QKEQNVNNRDSEKGFSK [YCS4]
protein stability index (doa10∆): 2.91 ± 0.071
protein stability index (pdr5∆): 3.11 ± 0.063
protein stability index (san1∆): 2.41 ± 0.061
protein stability index (ubr1∆): 2.97 ± 0.036

LIIIEKKQKLIEEQDKK [ITC1]
protein stability index (doa10∆): 3.12 ± 0.13
protein stability index (pdr5∆): 2.9 ± 0.21
protein stability index (san1∆): 2.96 ± 0.17
protein stability index (ubr1∆): 2.89 ± 0.084

NQNFSLTFQPQQQTNAL [GRR1]
protein stability index (doa10∆): 2.95 ± 0.065
protein stability index (pdr5∆): 3.2 ± 0.061
protein stability index (san1∆): 3.02 ± 0.067
protein stability index (ubr1∆): 2.94 ± 0.057

QIVSYCSNNKNSIKNVP [SSN2]
protein stability index (doa10∆): 1.65 ± 0.083
protein stability index (pdr5∆): 2.14 ± 0.096
protein stability index (san1∆): 1.4 ± 0.096
protein stability index (ubr1∆): 1.79 ± 0.083

VDREAMLKPNIIFQQLL [YCG1]
protein stability index (doa10∆): 2.98 ± 0.24
protein stability index (pdr5∆): 2.78 ± 0.19

AAGVERLIFYPDEYEQL [PRE3]
protein stability index (doa10∆): 2.96 ± 0.14
protein stability index (pdr5∆): 2.86 ± 0.13
protein stability index (san1∆): 3.1 ± 0.093
protein stability index (ubr1∆): 2.69 ± 0.16

GYDKKKNKPELYQIDYL [PRE1]
protein stability index (doa10∆): 3.04 ± 0.086
protein stability index (pdr5∆): 2.91 ± 0.098
protein stability index (san1∆): 3.02 ± 0.066
protein stability index (ubr1∆): 3.08 ± 0.09

QILTVDPKTSLRIVKPT [RPC82]
protein stability index (doa10∆): 3.07 ± 0.21
protein stability index (pdr5∆): 2.99 ± 0.19
protein stability index (san1∆): 3.09 ± 0.12

VIKRLEASTVPWGDYLQ [BRR2]
protein stability index (doa10∆): 1.63 ± 0.15
protein stability index (pdr5∆): 1.24 ± 0.11
protein stability index (san1∆): 1.54 ± 0.11
protein stability index (ubr1∆): 1.35 ± 0.11

EEATTEEAGEEEAKEEV [RPS0A]
protein stability index (doa10∆): 2.69 ± 0.11
protein stability index (pdr5∆): 2.78 ± 0.17

INQEKPVKLDENSANST [SIR4]
protein stability index (san1∆): 3.51 ± 0.18

MTIPHMKYAVSKTSENK [SIR2]
protein stability index (doa10∆): 3.14 ± 0.12
protein stability index (pdr5∆): 3.07 ± 0.16
protein stability index (san1∆): 2.75 ± 0.11
protein stability index (ubr1∆): 3.06 ± 0.1

IEMKDVSSKPSKPESSV [MED1]
protein stability index (doa10∆): 3.15 ± 0.12
protein stability index (pdr5∆): 3.33 ± 0.11
protein stability index (san1∆): 2.89 ± 0.076
protein stability index (ubr1∆): 3.25 ± 0.064
